The values that follow come from article PMC10729762, “CsrA selectively modulates sRNA-mRNA regulator outcomes”.

To fix the notation:
B1: McaS (structured_RNA)
RNA: ACCGGCGCAGAGGAGACAAUGCCGGAUUUAAGACGCGGAUGCACUGCUGUGUGUACUGUAGAGUCUGGCGGAUGUCGACAGACUCUAUUUUUU
B2: FnrS (structured_RNA)
RNA: GCAGGUGAAUGCAACGUCAAGCGAUGGGCGUUGCGCUCCAUAUUGUCUUACUUCCUUUUUUGAAUUACUGCAUAGCACAAUUGAUUCGUACGACGCCGACUUUGAUGAGUCGGCUUUUUUUU
B3: ChiX (structured_RNA)
RNA: ACACCGUCGCUUAAAGUGACGGCAUAAUAAUAAAAAAAUGAAAUUCCUCUUUGACGGGCCAAUAGCGAUAUUGGCCAUUUUUUU

This data set deals with CsrA;Hfq (Escherichia coli K-12 …, UniProt P69913;P0A6X3 1-61;1-102, |). The experiment in a line: EMSA; 6 uM CsrA + Hfq, likely ternary complex; 10 nM denatured RNA, 0-6 uM CsrA, 0-3 uM Hfq; 1X binding buffer (10 mM Tris-HCl pH 7.5, 10 mM MgCl2, 100 mM KCl) plus CsrA dilution buffer, 11% glycerol, 20 mM. To be noted: protein: recombinant;recombinant; tags: ;; chain copies: 2;6; label: internal 32P-UTP. Background: A gel shift assay detects complexes by their altered migration in electrophoresis.
Sequence of CsrA;Hfq (P69913 whole entry, chain 1 of 2): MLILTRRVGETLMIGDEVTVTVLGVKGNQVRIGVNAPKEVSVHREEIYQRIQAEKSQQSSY
Sequence of CsrA;Hfq (P0A6X3 whole entry, chain 2 of 2): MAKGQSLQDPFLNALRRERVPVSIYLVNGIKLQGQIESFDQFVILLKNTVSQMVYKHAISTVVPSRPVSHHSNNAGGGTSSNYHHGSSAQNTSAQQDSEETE
Take B1: the binding result is “binds”. B2: the binding result is given as “binds”.

As for B3, the binding result is on record as “binds”.
